Consider one molecule from article PMC3440371, “Non-Covalent Interaction between Polyubiquitin and GTP Cyclohydrolase 1 Dictates Its Degradation” (PLoS ONE, 2012).

The test concerns the target T1, polyubiquitin chains, endogenous in HEK293 cells (human (endogenous in HEK293), UniProt P0CG48 1-76).
T1 construct: ubiquitin (76 amino acids), cut product of the polyubiquitin precursor, joined into endogenous polyubiquitin chains; Precipitated or detected with a polyclonal ubiquitin antibody; seen as smeared bands; source: endogenous, HEK293 lysate
As to the kind of experiment: co-IP; lysates of HEK293 cells transfected with FLAG-GCH1 or mutants for 2 days, immunoprecipitated with the ubiquitin antibody and protein A/G beads; blot with FLAG antibody; empty vector as control. Particulars: partners not purified.

B1: FLAG-GTPCH1 I131L (natural protein, human, UniProt P30793 1-250, looked up)
chain: MEKGPVRAPAEKPRGARCSNGFPERDPPRPGPSRPAEKPPRPEAKSAQPADGWKGERPRSEEDNELNLPNLAAAYSSILSSLGENPQRQGLLKTPWRAASAMQFFTKGYQETISDVLNDAIFDEDHDEMVLVKDIDMFSMCEHHLVPFVGKVHIGYLPNKQVLGLSKLARIVEIYSRRLQVQERLTKQIAVAITEALRPAGVGVVVEATHMCMVMRGVQKMNSKTVTSTMLGVFREDPKTREEFLTLIRS
notes: GTP cyclohydrolase 1 (GTPCH1), human, full-length GCH1 cDNA with the point mutation I131L; also called FLAG-GCH1 I131L; source: HEK293, transfected (pCI-neo), in lysate; not shown: FLAG, C-terminal, kept
For B1, the “fold change of ubiquitin binding against wild-type FLAG-GTPCH1” value was approximately 4.5 fold.
